Results: doi:10.1101/2023.01.09.523197

Target: GlnR;RNAP holoenzyme (Mycobacterium …, UniProt O53830;P9WGZ1;P9WGY9;P9WGY7;P9WGY5;P9WGI1 1-255;1-347;1-1178;1-1316;1-110;1-528, |)
Test: cryo-EM

B1: amtB scaffold (dsDNA)
DNA 1: CTTCGTCACGGCGGCGAAACAACGAGGGGCTTCCACCGAAACCGCGCTGCGTTATAATGGGAGCTGTCACGGATGCA
DNA 2: TGCATCCGTGAGTCGAGGGTAATAAACGCAGCGCGGTTTCGGTGGAAGCCCCTCGTTGTTTCGCCGCCGTGACGAAG
B1: binds.
